B1: FAM50A (parent)
chain: KKREKQREQMEQMKQRIAEENIMK
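Also: lentivirally expressed fusions sorted by FACS into six bins by GFP to DsRed ratio, PSI derived from sequencing read proportions per bin multiplied by bin number.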

Variants of: B1
Assay: protein stability index of a GFP-peptide fusion (GPS, HEK-293T) (PSI 1-6); higher = more stable
Conditions: c terminus: a fixed tail appended
KKREKQREQMFQMKQRIAEENIMK showed a protein stability index of 4.15.
Work on KKREKQREQMGQMKQRIAEENIMK yielded a protein stability index of 4.48.
For KKREKQREQMHQMKQRIAEENIMK, the protein stability index was 4.62.
For KKREKQREQMIQMKQRIAEENIMK, the protein stability index was 4.4.
With KKREKQREQMKQMKQRIAEENIMK the protein stability index was 4.5.
With KKREKQREQMLQMKQRIAEENIMK the protein stability index was 3.96.
KKREKQREQMMQMKQRIAEENIMK gave a protein stability index of 4.17.
For KKREKQREQMNQMKQRIAEENIMK, the protein stability index was 4.86.
For KKREKQREQMPQMKQRIAEENIMK, the protein stability index was 4.74.
For KKREKQREQMQQMKQRIAEENIMK, the protein stability index was 4.68.
For KKREKQREQMRQMKQRIAEENIMK, the protein stability index was 4.49.
KKREKQREQMSQMKQRIAEENIMK gave a protein stability index of 4.41.
Work on KKREKQREQMTQMKQRIAEENIMK yielded a protein stability index of 4.57.
For KKREKQREQMVQMKQRIAEENIMK, the protein stability index was 4.66.
Work on KKREKQREQMWQMKQRIAEENIMK yielded a protein stability index of 3.9.
In the case of KKREKQREQMYQMKQRIAEENIMK, the protein stability index is reported as 4.25.
Variant KKREKQREQMEAMKQRIAEENIMK has a protein stability index of 4.44.
Work on KKREKQREQMECMKQRIAEENIMK yielded a protein stability index of 5.05.
KKREKQREQMEDMKQRIAEENIMK showed a protein stability index of 5.02.
KKREKQREQMEEMKQRIAEENIMK gave a protein stability index of 5.28.
KKREKQREQMEFMKQRIAEENIMK showed a protein stability index of 3.71.
For KKREKQREQMEGMKQRIAEENIMK, the protein stability index was 4.66.
For KKREKQREQMEHMKQRIAEENIMK, the protein stability index was 4.58.
KKREKQREQMEIMKQRIAEENIMK showed a protein stability index of 4.63.
For KKREKQREQMEKMKQRIAEENIMK, the protein stability index was 4.57.
Work on KKREKQREQMELMKQRIAEENIMK yielded a protein stability index of 4.55.
For KKREKQREQMEMMKQRIAEENIMK, the protein stability index was 4.27.
In the case of KKREKQREQMENMKQRIAEENIMK, the protein stability index is reported as 5.04.
KKREKQREQMEPMKQRIAEENIMK showed a protein stability index of 4.9.
KKREKQREQMERMKQRIAEENIMK showed a protein stability index of 4.39.
For KKREKQREQMESMKQRIAEENIMK, the protein stability index was 4.84.
For KKREKQREQMETMKQRIAEENIMK, the protein stability index was 4.7.
Work on KKREKQREQMEVMKQRIAEENIMK yielded a protein stability index of 5.07.
For KKREKQREQMEWMKQRIAEENIMK, the protein stability index was 4.45.
For KKREKQREQMEYMKQRIAEENIMK, the protein stability index was 4.55.
KKREKQREQMEQAKQRIAEENIMK showed a protein stability index of 4.95.
Work on KKREKQREQMEQCKQRIAEENIMK yielded a protein stability index of 5.03.
For KKREKQREQMEQDKQRIAEENIMK, the protein stability index was 5.13.
For KKREKQREQMEQEKQRIAEENIMK, the protein stability index was 5.5.
Work on KKREKQREQMEQFKQRIAEENIMK yielded a protein stability index of 4.67.
Work on KKREKQREQMEQGKQRIAEENIMK yielded a protein stability index of 5.27.
In the case of KKREKQREQMEQHKQRIAEENIMK, the protein stability index is reported as 4.65.
KKREKQREQMEQIKQRIAEENIMK showed a protein stability index of 4.29.
In the case of KKREKQREQMEQKKQRIAEENIMK, the protein stability index is reported as 4.77.
For KKREKQREQMEQLKQRIAEENIMK, the protein stability index was 5.37.
For KKREKQREQMEQNKQRIAEENIMK, the protein stability index was 5.21.
In the case of KKREKQREQMEQPKQRIAEENIMK, the protein stability index is reported as 4.99.
Work on KKREKQREQMEQQKQRIAEENIMK yielded a protein stability index of 5.26.
KKREKQREQMEQRKQRIAEENIMK gave a protein stability index of 5.08.
KKREKQREQMEQSKQRIAEENIMK showed a protein stability index of 5.31.
Variant KKREKQREQMEQTKQRIAEENIMK has a protein stability index of 5.31.
KKREKQREQMEQVKQRIAEENIMK gave a protein stability index of 4.82.
In the case of KKREKQREQMEQWKQRIAEENIMK, the protein stability index is reported as 2.63.
KKREKQREQMEQYKQRIAEENIMK gave a protein stability index of 3.98.
In the case of KKREKQREQMEQMAQRIAEENIMK, the protein stability index is reported as 5.21.
For KKREKQREQMEQMCQRIAEENIMK, the protein stability index was 4.57.
Variant KKREKQREQMEQMDQRIAEENIMK has a protein stability index of 5.02.
Variant KKREKQREQMEQMEQRIAEENIMK has a protein stability index of 5.01.
KKREKQREQMEQMFQRIAEENIMK gave a protein stability index of 4.32.
Variant KKREKQREQMEQMGQRIAEENIMK has a protein stability index of 5.02.
Variant KKREKQREQMEQMHQRIAEENIMK has a protein stability index of 5.01.
For KKREKQREQMEQMIQRIAEENIMK, the protein stability index was 4.05.
Variant KKREKQREQMEQMLQRIAEENIMK has a protein stability index of 4.11.
With KKREKQREQMEQMMQRIAEENIMK the protein stability index was 4.53.
KKREKQREQMEQMNQRIAEENIMK showed a protein stability index of 4.86.
Work on KKREKQREQMEQMPQRIAEENIMK yielded a protein stability index of 5.67.
KKREKQREQMEQMQQRIAEENIMK gave a protein stability index of 5.15.
Work on KKREKQREQMEQMRQRIAEENIMK yielded a protein stability index of 4.59.
For KKREKQREQMEQMSQRIAEENIMK, the protein stability index was 5.06.
In the case of KKREKQREQMEQMTQRIAEENIMK, the protein stability index is reported as 4.3.
Variant KKREKQREQMEQMVQRIAEENIMK has a protein stability index of 4.63.
In the case of KKREKQREQMEQMWQRIAEENIMK, the protein stability index is reported as 3.9.
In the case of KKREKQREQMEQMYQRIAEENIMK, the protein stability index is reported as 4.39.
KKREKQREQMEQMKARIAEENIMK gave a protein stability index of 4.67.
KKREKQREQMEQMKCRIAEENIMK showed a protein stability index of 4.19.
KKREKQREQMEQMKDRIAEENIMK showed a protein stability index of 5.02.
KKREKQREQMEQMKERIAEENIMK gave a protein stability index of 5.51.
In the case of KKREKQREQMEQMKFRIAEENIMK, the protein stability index is reported as 4.44.
KKREKQREQMEQMKGRIAEENIMK showed a protein stability index of 4.68.
KKREKQREQMEQMKHRIAEENIMK showed a protein stability index of 4.84.
KKREKQREQMEQMKIRIAEENIMK showed a protein stability index of 4.51.
KKREKQREQMEQMKKRIAEENIMK gave a protein stability index of 4.4.
For KKREKQREQMEQMKLRIAEENIMK, the protein stability index was 4.7.
KKREKQREQMEQMKMRIAEENIMK gave a protein stability index of 4.5.
In the case of KKREKQREQMEQMKNRIAEENIMK, the protein stability index is reported as 4.8.
KKREKQREQMEQMKPRIAEENIMK showed a protein stability index of 4.9.
For KKREKQREQMEQMKRRIAEENIMK, the protein stability index was 4.73.
In the case of KKREKQREQMEQMKSRIAEENIMK, the protein stability index is reported as 4.9.
For KKREKQREQMEQMKTRIAEENIMK, the protein stability index was 4.85.
With KKREKQREQMEQMKVRIAEENIMK the protein stability index was 4.36.
With KKREKQREQMEQMKWRIAEENIMK the protein stability index was 4.29.
In the case of KKREKQREQMEQMKYRIAEENIMK, the protein stability index is reported as 4.14.
In the case of KKREKQREQMEQMKQAIAEENIMK, the protein stability index is reported as 5.42.
In the case of KKREKQREQMEQMKQCIAEENIMK, the protein stability index is reported as 4.81.
